Test results taken from patent US20030108549A1 (GENETICS INSTITUTE, published 2003).

B1: mIL-2 (ligand, mouse, UniProt P04351 21-169, looked up)
chain: APTSSSTSSSTAEAQQQQQQQQQQQQHLEQLLMDLQELLSRMENYRNLKLPRMLTFKFYLPKQATELKDLQCLEDELGPLRHVLDLTQSKSFQLEDAENFISNIRVTVVKLKGSDNTFECQFDDESATVVDFLRRWIAFCQSIISTSPQ
B2: mIL-7 (ligand, mouse, UniProt P10168 26-154, looked up)
chain: ECHIKDKEGKAYESVLMISIDELDKMTGTDSNCPNNEPNFFRKHVCDDTKEAAFLNRAARKLKQFLKMNISEEFNVHLLTVSQGTQTLVNCTSKEEKNVKEQKKNDACFLKRLLREIKTCWNKILKGSI

Target: T1, human MU-1 Ig fusion protein (human, UniProt Q9HBE5 20-235)
T1 construct: also called MUFc; human Ig fusion protein; not shown: Ig portion
Assay: Biacore; MU-1 Ig fusion immobilized on chip
Experimental: Both human and murine Ig fusion proteins were constructed and immobilized on Biacore chips in an effort to identify the ligand for MU-1. A variety of cell culture conditioned media as well as a panel of known cytokines were evaluated for binding to MU-1. Some cytokines were also tested in combination with other receptor chains in the family to consider the possibility that MU-1 may require a second receptor chain for ligand binding. The following cytokines were tested and found to be negative for MU-1 binding: mIL-2, hIL-2, hIL-i5, mIL-7, TSLP, TSLP+IL7, TSLP+IL7R, TSLP+IL7g, TSLP+IL-2, TSLP+1L2+IL2Rbeta, IL2Rbeta, IL2Rgamma, IL7R, IL2+2Rbeta, IL2+2Rgamma, IL1 5+IL2Rbeta, 1L15+2Rgamma, 1IL7+2Rgamma, IL2+IL7R, IL1 5+IL7R, IL7+IL7R. Known receptors have been immobilized as well and tested for MUFc binding with negative results. IL-IS will bind to IL2Rb but not IL2Rg or MUFc.

T1 sequence (Q9HBE5 20-235): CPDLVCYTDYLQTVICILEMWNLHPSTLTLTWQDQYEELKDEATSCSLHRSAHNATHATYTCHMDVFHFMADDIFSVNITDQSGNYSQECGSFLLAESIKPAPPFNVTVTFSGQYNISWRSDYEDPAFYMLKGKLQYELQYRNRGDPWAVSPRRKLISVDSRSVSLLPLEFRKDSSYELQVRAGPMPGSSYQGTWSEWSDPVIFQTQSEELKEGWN

Row | Binder | binding result
1 | B1 | no binding
2 | B2 | no binding
